The target in this assay is Aldehyde-deformylating oxygenase (Synpcc7942_1593) from Synechococcus elongatus PCC7942 (Synechococcus elongatus PCC7942) (UniProt Q54764).
Aldehyde-deformylating oxygenase (Synpcc7942_1593) from Synechococcus elongatus PCC7942 (Synechococcus elongatus PCC7942), sequence (Q54764 whole entry): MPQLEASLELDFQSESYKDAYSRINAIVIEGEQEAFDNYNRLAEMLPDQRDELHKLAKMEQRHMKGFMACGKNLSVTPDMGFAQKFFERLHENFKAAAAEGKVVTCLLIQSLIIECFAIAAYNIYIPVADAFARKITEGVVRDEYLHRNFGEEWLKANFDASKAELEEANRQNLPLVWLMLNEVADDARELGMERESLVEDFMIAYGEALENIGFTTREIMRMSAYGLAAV

Spinach ferredoxin, sequence (P00221 51-147): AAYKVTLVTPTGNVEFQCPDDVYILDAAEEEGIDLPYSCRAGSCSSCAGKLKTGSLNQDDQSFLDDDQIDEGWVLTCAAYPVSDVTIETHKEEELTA

For “Spinach ferredoxin (from UniProt P00221 51-147) (natural protein)”, the Yield of n-pentadecane by ADO 1593 with Fd (spinach) + FNR (PCC7942) + NADPH worked out at 13.9 µM and the Yield of n-pentadecane by ADO 1593 with Fd (spinach) + FNR (spinach) + NADPH was determined as 15.7 µM.

The values are drawn from paper PMC3691600, “Conversion of fatty aldehydes into alk (a/e)nes by in vitro reconstituted cyanobacterial aldehyde-deformylating oxygenase with the cognate electron transfer system” (Biotechnology for Biofuels, 2013).
